Reference: patent CN117088968A

Target: 2019-nCoV N蛋白抗原 (2019-nCoV (新型冠状病毒)) (UniProt P0DTC9)
Test: AMC sensor, antibody captured at 10 μg/mL, N protein antigen in serial dilution in PBST

Kd: 24.3 nM | koff: 0.00011 s⁻¹ | kon: 4520 M⁻¹ s⁻¹
Substance: 对照 (antibody)
